These results are taken from IntAct's records for PubMed 19876371.

To fix the notation:
B1: Glucose-1-phosphate adenylyltransferase large subunit 1 (Solanum tuberosum (Potato)), Q00081 (parent)
chain: NKIKPGVAYSVITTENDTQTVFVDMPRLERRRANPKDVAAVILGGGEGTKLFPLTSRTATPAVPVGGCYRLIDIPMSNCINSAINKIFVLTQYNSAPLNRHIARTYFGNGVSFGDGFVEVLAATQTPGEAGKKWFQGTADAVRKFIWVFEDAKNKNIENIVVLSGDHLYRMDYMELVQNHIDRNADITLSCAPAEDSRASDFGLVKIDSRGRVVQFAEKPKGFDLKAMQVDTTLVGLSPQDAKKSPYIASMGVYVFKTDVLLKLLKWSYPTSNDFGSEIIPAAIDDYNVQAYIFKDYWEDIGTIKSFYNASLALTQEFPEFQFYDPKTPFYTSPRFLPPTKIDNCKIKDAIISHGCFLRDCSVEHSIVGERSRLDCGVELKDTFMMGADYYQTESEIASLLAEGKVPIGIGENTKIRKCIIDKNAKIGKNVSIINKDGVQEADRPEEGFYIRSGIIIILEKATIRDGTVI
partner: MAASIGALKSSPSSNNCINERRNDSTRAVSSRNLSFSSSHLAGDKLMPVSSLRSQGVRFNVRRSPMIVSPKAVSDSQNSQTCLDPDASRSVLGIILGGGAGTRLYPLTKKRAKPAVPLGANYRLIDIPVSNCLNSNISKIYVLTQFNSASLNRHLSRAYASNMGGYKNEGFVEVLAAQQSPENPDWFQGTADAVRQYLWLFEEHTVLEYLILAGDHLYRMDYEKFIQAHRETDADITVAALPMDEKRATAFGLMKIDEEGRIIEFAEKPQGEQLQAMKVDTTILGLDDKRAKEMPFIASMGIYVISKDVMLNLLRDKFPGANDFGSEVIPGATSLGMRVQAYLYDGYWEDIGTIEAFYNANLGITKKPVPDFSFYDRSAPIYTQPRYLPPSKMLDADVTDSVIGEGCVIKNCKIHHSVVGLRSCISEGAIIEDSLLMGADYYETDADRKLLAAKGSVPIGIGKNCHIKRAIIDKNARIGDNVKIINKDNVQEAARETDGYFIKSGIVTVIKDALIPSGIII

Variants of B1 are the subject of this test. Conditions: with glgs_soltu glgs.
Consider R100A, for which the “effect of a mutation on the interaction” value is given as “disrupting interaction”.

As for I342A, the “effect of a mutation on the interaction” value was “disrupting interaction”.

On to I347A, for which the “effect of a mutation on the interaction” value was “disrupting interaction”.

In the case of P339A, the “effect of a mutation on the interaction” value is reported as “disrupting interaction”.

With I351A;I352A, the “effect of a mutation on the interaction” value is listed as “disrupting interaction”.
